Test results: paper PMC6965034 (2019)

B1: GST-tagged PAK1 (Y270-H545) (domain or fragment)
chain: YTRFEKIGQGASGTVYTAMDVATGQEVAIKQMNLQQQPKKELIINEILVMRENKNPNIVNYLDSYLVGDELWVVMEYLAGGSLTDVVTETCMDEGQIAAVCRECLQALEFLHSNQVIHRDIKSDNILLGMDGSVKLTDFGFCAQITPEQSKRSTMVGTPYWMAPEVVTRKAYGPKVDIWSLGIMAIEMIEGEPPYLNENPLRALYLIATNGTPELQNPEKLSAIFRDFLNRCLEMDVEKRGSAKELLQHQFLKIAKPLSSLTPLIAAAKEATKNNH
B2: complete sortilin cytoplasmic domain (K779-E831), GST tag removed (domain or fragment)
chain: KKYVCGGRFLVHRYSVLQQHAEANGVDGVDALDTASHTNKSGYHDDSDEDLLE

Tests used:
Experiment in all cases: ITC
sortilin-cd peptide A = sortilin-cd peptide A (human)
sortilin-cd peptide C = sortilin-cd peptide C (human)
sortilin-cd peptide B = sortilin-cd peptide B (human)
[1] = target: B1

sortilin-cd peptide B (human), sequence (Q13153 270-545): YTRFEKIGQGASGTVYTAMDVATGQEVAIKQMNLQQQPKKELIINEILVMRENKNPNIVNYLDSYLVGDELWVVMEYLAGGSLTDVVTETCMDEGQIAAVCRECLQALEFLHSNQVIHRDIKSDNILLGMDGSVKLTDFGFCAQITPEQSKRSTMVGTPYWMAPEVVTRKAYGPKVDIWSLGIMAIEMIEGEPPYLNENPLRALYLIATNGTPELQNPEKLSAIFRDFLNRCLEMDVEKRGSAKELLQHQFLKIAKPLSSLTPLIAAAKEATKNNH
sortilin-cd peptide C (human), sequence (Q13153 270-545): as above
sortilin-cd peptide A (human), sequence (Q13153 270-545): as above

| Binder | Kd (sortilin-cd peptide A) [µM] | Kd (sortilin-cd peptide C) [µM] | Kd (sortilin-cd peptide B) [µM] | Kd [1] [µM] |
| --- | --- | --- | --- | --- |
| B1 | 14.1 | 3.6 | 12.6 |  |
| B2 |  |  |  | 1.8 |
